The record followed here is paper PMC12416549 (2024).

The target in the assay is T1, TNFR1 (Homo sapiens, UniProt P19438).
T1 chain: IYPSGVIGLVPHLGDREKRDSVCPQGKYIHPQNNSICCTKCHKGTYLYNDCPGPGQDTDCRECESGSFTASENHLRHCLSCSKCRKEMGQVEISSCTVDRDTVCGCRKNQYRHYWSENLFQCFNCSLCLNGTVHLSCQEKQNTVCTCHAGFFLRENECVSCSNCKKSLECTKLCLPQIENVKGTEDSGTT
Description: yeast display SC50.

B1: E61R (designed binder)
chain: SMEEEVEKAAKEYEKKKKEAIEKHLEKLKAKDKEAAERFLKELEEAAKEYAKDEAKTMSEREAKRRAKKYKEKVLLSELSEEEQKEIKEAEEKLVRTILKYVEEAAK
As to B1, the “apparent Kd (screen)” value is 2.48 nM.

B2: A36S (designed binder)
chain: SMEEEVEKAAKEYEKKKKEAIEKHLEKLKAKDKEASERFLKELEEAAKEYAKDEAKTMSEEEAKRRAKKYKEKVLLSELSEEEQKEIKEAEEKLVRTILKYVEEAAK
Regarding B2, the “apparent Kd (screen)” value came out at 1.05 nM.

B3: E72L (designed binder)
chain: SMEEEVEKAAKEYEKKKKEAIEKHLEKLKAKDKEAAERFLKELEEAAKEYAKDEAKTMSEEEAKRRAKKYKLKVLLSELSEEEQKEIKEAEEKLVRTILKYVEEAAK
For B3, the “apparent Kd (screen)” value was 0.446 nM.

B4: I98V (designed binder)
chain: SMEEEVEKAAKEYEKKKKEAIEKHLEKLKAKDKEAAERFLKELEEAAKEYAKDEAKTMSEEEAKRRAKKYKEKVLLSELSEEEQKEIKEAEEKLVRTVLKYVEEAAK
As to B4, the “apparent Kd (screen)” value was found to be 11.4 nM.

B5: E61C (designed binder)
chain: SMEEEVEKAAKEYEKKKKEAIEKHLEKLKAKDKEAAERFLKELEEAAKEYAKDEAKTMSECEAKRRAKKYKEKVLLSELSEEEQKEIKEAEEKLVRTILKYVEEAAK
Turning to B5, the “apparent Kd (screen)” value came out at 1.86 nM.

B6: S80A (designed binder)
chain: SMEEEVEKAAKEYEKKKKEAIEKHLEKLKAKDKEAAERFLKELEEAAKEYAKDEAKTMSEEEAKRRAKKYKEKVLLSELAEEEQKEIKEAEEKLVRTILKYVEEAAK
B6: the “apparent Kd (screen)” value came out at 1.16 nM.

B7: A90Q (designed binder)
chain: SMEEEVEKAAKEYEKKKKEAIEKHLEKLKAKDKEAAERFLKELEEAAKEYAKDEAKTMSEEEAKRRAKKYKEKVLLSELSEEEQKEIKEQEEKLVRTILKYVEEAAK
Turning to B7, the “apparent Kd (screen)” value was 0.49 nM.

B8: S1Q (designed binder)
chain: QMEEEVEKAAKEYEKKKKEAIEKHLEKLKAKDKEAAERFLKELEEAAKEYAKDEAKTMSEEEAKRRAKKYKEKVLLSELSEEEQKEIKEAEEKLVRTILKYVEEAAK
Turning to B8, the “apparent Kd (screen)” value was 0.539 nM.

B9: K23P (designed binder)
chain: SMEEEVEKAAKEYEKKKKEAIEPHLEKLKAKDKEAAERFLKELEEAAKEYAKDEAKTMSEEEAKRRAKKYKEKVLLSELSEEEQKEIKEAEEKLVRTILKYVEEAAK
Regarding B9, the “apparent Kd (screen)” value was 11.4 nM.

B10: V74E (designed binder)
chain: SMEEEVEKAAKEYEKKKKEAIEKHLEKLKAKDKEAAERFLKELEEAAKEYAKDEAKTMSEEEAKRRAKKYKEKELLSELSEEEQKEIKEAEEKLVRTILKYVEEAAK
As to B10, the “apparent Kd (screen)” value was 0.304 nM.

B11: L25V (designed binder)
chain: SMEEEVEKAAKEYEKKKKEAIEKHVEKLKAKDKEAAERFLKELEEAAKEYAKDEAKTMSEEEAKRRAKKYKEKVLLSELSEEEQKEIKEAEEKLVRTILKYVEEAAK
Turning to B11, the “apparent Kd (screen)” value was 1.27 nM.

B12: E60G (designed binder)
chain: SMEEEVEKAAKEYEKKKKEAIEKHLEKLKAKDKEAAERFLKELEEAAKEYAKDEAKTMSGEEAKRRAKKYKEKVLLSELSEEEQKEIKEAEEKLVRTILKYVEEAAK
For the molecule B12, the “apparent Kd (screen)” value worked out at 1.54 nM.

B13: F39T (designed binder)
chain: SMEEEVEKAAKEYEKKKKEAIEKHLEKLKAKDKEAAERTLKELEEAAKEYAKDEAKTMSEEEAKRRAKKYKEKVLLSELSEEEQKEIKEAEEKLVRTILKYVEEAAK
On to B13, for which the “apparent Kd (screen)” value was 2.73 nM.

B14: L40E (designed binder)
chain: SMEEEVEKAAKEYEKKKKEAIEKHLEKLKAKDKEAAERFEKELEEAAKEYAKDEAKTMSEEEAKRRAKKYKEKVLLSELSEEEQKEIKEAEEKLVRTILKYVEEAAK
Regarding B14, the “apparent Kd (screen)” value is 0.49 nM.

B15: K56V (designed binder)
chain: SMEEEVEKAAKEYEKKKKEAIEKHLEKLKAKDKEAAERFLKELEEAAKEYAKDEAVTMSEEEAKRRAKKYKEKVLLSELSEEEQKEIKEAEEKLVRTILKYVEEAAK
B15: the “apparent Kd (screen)” value was 2.73 nM.

B16: K15P (designed binder)
chain: SMEEEVEKAAKEYEPKKKEAIEKHLEKLKAKDKEAAERFLKELEEAAKEYAKDEAKTMSEEEAKRRAKKYKEKVLLSELSEEEQKEIKEAEEKLVRTILKYVEEAAK
Regarding B16, the “apparent Kd (screen)” value came to 6.43 nM.

B17: E4L (designed binder)
chain: SMELEVEKAAKEYEKKKKEAIEKHLEKLKAKDKEAAERFLKELEEAAKEYAKDEAKTMSEEEAKRRAKKYKEKVLLSELSEEEQKEIKEAEEKLVRTILKYVEEAAK
As to B17, the “apparent Kd (screen)” value came to 0.79 nM.

B18: A46C (designed binder)
chain: SMEEEVEKAAKEYEKKKKEAIEKHLEKLKAKDKEAAERFLKELEECAKEYAKDEAKTMSEEEAKRRAKKYKEKVLLSELSEEEQKEIKEAEEKLVRTILKYVEEAAK
Regarding B18, the “apparent Kd (screen)” value worked out at 1.86 nM.

B19: A63P (designed binder)
chain: SMEEEVEKAAKEYEKKKKEAIEKHLEKLKAKDKEAAERFLKELEEAAKEYAKDEAKTMSEEEPKRRAKKYKEKVLLSELSEEEQKEIKEAEEKLVRTILKYVEEAAK
For the molecule B19, the “apparent Kd (screen)” value was 6.43 nM.

B20: E34L (designed binder)
chain: SMEEEVEKAAKEYEKKKKEAIEKHLEKLKAKDKLAAERFLKELEEAAKEYAKDEAKTMSEEEAKRRAKKYKEKVLLSELSEEEQKEIKEAEEKLVRTILKYVEEAAK
In the case of B20, the “apparent Kd (screen)” value was found to be 0.446 nM.

B21: E104T (designed binder)
chain: SMEEEVEKAAKEYEKKKKEAIEKHLEKLKAKDKEAAERFLKELEEAAKEYAKDEAKTMSEEEAKRRAKKYKEKVLLSELSEEEQKEIKEAEEKLVRTILKYVETAAK
On to B21, for which the “apparent Kd (screen)” value is 0.49 nM.

B22: K31M (designed binder)
chain: SMEEEVEKAAKEYEKKKKEAIEKHLEKLKAMDKEAAERFLKELEEAAKEYAKDEAKTMSEEEAKRRAKKYKEKVLLSELSEEEQKEIKEAEEKLVRTILKYVEEAAK
For B22, the “apparent Kd (screen)” value was 0.49 nM.

B23: K73A (designed binder)
chain: SMEEEVEKAAKEYEKKKKEAIEKHLEKLKAKDKEAAERFLKELEEAAKEYAKDEAKTMSEEEAKRRAKKYKEAVLLSELSEEEQKEIKEAEEKLVRTILKYVEEAAK
As to B23, the “apparent Kd (screen)” value was 12.5 nM.

B24: K48P (designed binder)
chain: SMEEEVEKAAKEYEKKKKEAIEKHLEKLKAKDKEAAERFLKELEEAAPEYAKDEAKTMSEEEAKRRAKKYKEKVLLSELSEEEQKEIKEAEEKLVRTILKYVEEAAK
On to B24, for which the “apparent Kd (screen)” value is 12.5 nM.

B25: A36F (designed binder)
chain: SMEEEVEKAAKEYEKKKKEAIEKHLEKLKAKDKEAFERFLKELEEAAKEYAKDEAKTMSEEEAKRRAKKYKEKVLLSELSEEEQKEIKEAEEKLVRTILKYVEEAAK
As to B25, the “apparent Kd (screen)” value stood at 1.27 nM.

B26: A47V (designed binder)
chain: SMEEEVEKAAKEYEKKKKEAIEKHLEKLKAKDKEAAERFLKELEEAVKEYAKDEAKTMSEEEAKRRAKKYKEKVLLSELSEEEQKEIKEAEEKLVRTILKYVEEAAK
Take B26: the “apparent Kd (screen)” value stood at 0.49 nM.

B27: E26F (designed binder)
chain: SMEEEVEKAAKEYEKKKKEAIEKHLFKLKAKDKEAAERFLKELEEAAKEYAKDEAKTMSEEEAKRRAKKYKEKVLLSELSEEEQKEIKEAEEKLVRTILKYVEEAAK
As for B27, the “apparent Kd (screen)” value amounted to 0.956 nM.

B28: K16I (designed binder)
chain: SMEEEVEKAAKEYEKIKKEAIEKHLEKLKAKDKEAAERFLKELEEAAKEYAKDEAKTMSEEEAKRRAKKYKEKVLLSELSEEEQKEIKEAEEKLVRTILKYVEEAAK
As for B28, the “apparent Kd (screen)” value came out at 0.446 nM.

B29: L99V (designed binder)
chain: SMEEEVEKAAKEYEKKKKEAIEKHLEKLKAKDKEAAERFLKELEEAAKEYAKDEAKTMSEEEAKRRAKKYKEKVLLSELSEEEQKEIKEAEEKLVRTIVKYVEEAAK
As to B29, the “apparent Kd (screen)” value is 2.25 nM.

B30: S59Y (designed binder)
chain: SMEEEVEKAAKEYEKKKKEAIEKHLEKLKAKDKEAAERFLKELEEAAKEYAKDEAKTMYEEEAKRRAKKYKEKVLLSELSEEEQKEIKEAEEKLVRTILKYVEEAAK
On to B30, for which the “apparent Kd (screen)” value came to 7.78 nM.

B31: K85G (designed binder)
chain: SMEEEVEKAAKEYEKKKKEAIEKHLEKLKAKDKEAAERFLKELEEAAKEYAKDEAKTMSEEEAKRRAKKYKEKVLLSELSEEEQGEIKEAEEKLVRTILKYVEEAAK
As for B31, the “apparent Kd (screen)” value is 0.49 nM.

B32: E54T (designed binder)
chain: SMEEEVEKAAKEYEKKKKEAIEKHLEKLKAKDKEAAERFLKELEEAAKEYAKDTAKTMSEEEAKRRAKKYKEKVLLSELSEEEQKEIKEAEEKLVRTILKYVEEAAK
Regarding B32, the “apparent Kd (screen)” value amounted to 12.5 nM.

B33: K73Y (designed binder)
chain: SMEEEVEKAAKEYEKKKKEAIEKHLEKLKAKDKEAAERFLKELEEAAKEYAKDEAKTMSEEEAKRRAKKYKEYVLLSELSEEEQKEIKEAEEKLVRTILKYVEEAAK
Consider B33, for which the “apparent Kd (screen)” value amounted to 10.4 nM.
